These results are taken from US20160311916A1 (ALLIGATOR BIOSCIENCE, published 2016).

Where a chain is given by its changes, count along the chain named.

The labels stand for the following.
B1: antibody 1136/1137 (antibody, V domains shown)
VH: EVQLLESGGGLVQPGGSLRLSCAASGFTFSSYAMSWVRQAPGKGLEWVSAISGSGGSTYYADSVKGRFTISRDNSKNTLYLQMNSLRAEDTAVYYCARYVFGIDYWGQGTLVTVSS
VL: DIQMTQSPSSLSASVGDRVTITCRASQSISSYLNWYQQKPGKAPKLLIYAASSLQSGVPSRFSGSGSGTDFTLTISSLQPEDFATYYCQQAYYAGLFTFGQGTKLEIK
notes: Re-cloned from scFv into full IgG format, made in 293 Freestyle cells
B2: antibody 1150/1151 (antibody, V domains shown)
VH: EVQLLESGGGLVQPGGSLRLSCAASGFTFSSYAMSWVRQAPGKGLEWVSGIGGSSSYTSYADSVKGRFTISRDNSKNTLYLQMNSLRAEDTAVYYCARYYSYHMDYWGQGTLVTVSS
VL: DIQMTQSPSSLSASVGDHVTITCRASQSISSYLNWYQQKPGKAPKLLIYAASSLQSGVPSRFSGSGSGTDFTLTISSLQPEDFATYYCQQYGSAPPTFGQGTKLEIK
B3: antibody 1132/1133 (antibody, V domains shown)
VH: B2 VH with G53S, S54Y, S55G, S56G, Y57G, S59Y, Y100V, S101N, Y102F, H103G
VL: B2 VL with H18R, S93R, A94N
notes: as for B1
B4: antibody 1107/1108 (antibody, V domains shown)
VH: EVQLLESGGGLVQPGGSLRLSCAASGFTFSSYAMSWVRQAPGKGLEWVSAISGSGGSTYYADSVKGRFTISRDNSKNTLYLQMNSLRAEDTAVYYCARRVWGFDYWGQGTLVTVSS
VL: B2 VL with H18R, S93V, A94Y, P96F
notes: as for B1
B5: antibody 1134/1135 (antibody, V domains shown)
VH: EVQLLESGGGLVQPGGSLRLSCAASGFTFSSYAMSWVRQAPGKGLEWVSSIYSGGGGTSYADSVKGRFTISRDNSKNTLYLQMNSLRAEDTAVYYCARGPAYSSFFDYWGQGTLVTVSS
VL: not shown
notes: as for B1
B6: antibody 1146/1147 (antibody, V domains shown)
VH: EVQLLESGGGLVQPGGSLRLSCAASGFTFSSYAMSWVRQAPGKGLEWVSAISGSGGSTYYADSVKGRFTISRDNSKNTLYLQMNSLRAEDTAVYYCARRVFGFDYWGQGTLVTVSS
VL: B2 VL with H18R, G92Y, S93Y, A94Y, P96F
notes: as for B1
B7: antibody 1148/1149 (antibody, V domains shown)
VH: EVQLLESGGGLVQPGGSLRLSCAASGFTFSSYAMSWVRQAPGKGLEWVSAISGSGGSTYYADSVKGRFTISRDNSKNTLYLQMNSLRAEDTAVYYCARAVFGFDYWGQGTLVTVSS
VL: B2 VL with H18R, Y91A, G92Y, S93Y, A94F, P96H
notes: as for B1

The first test has as its target T1, CD40hfc (R&Dsystems, USA) (human, UniProt P25942 21-193).
T1 construct: Bought reagent, amine-coupled to a CM5 chip; not shown: Fc part of the bought fusion protein
Description: SPR Biacore 3000, CD40hfc immobilized on CM5, antibody as analyte, 1:1 Langmuir. On the procedure: (§1) The affinity constants of purified antibodies were assessed by surface plasmon resonance using the Biacore 3000 instrument according to manufacturer's protocols. CD40hfc (R&Dsystems, USA) was immobilized to the BIAcore sensorchip, CM5, using conventional amine coupling. Association was followed for 3 minutes and dissociation for 12 minutes. Regeneration was performed twice using 50 mM NaOH for 30 seconds. The kinetic parameters and the affinity constants were calculated using BIAevaluation 4.1 software. The CD40 antibody clones were run over the sensor at a flow rate of 30 μl/min in HBS-P (GE, BR-1003-68) at concentration ranges between 1-100 or 1-300 nM and analyzed using 1:1 Langmuir with drifting baseline.
On the technique in general: Surface plasmon resonance follows binding to a sensor surface in real time, without labels.
For orientation: Kd means the concentration at which binding is half-saturated. Higher therefore signals weaker binding. Usually koff stands for a measure of how fast the partners let go of each other. A low value points to slow dissociation. Broadly, the kon is the rate constant with which the complex forms. The low end stands for slow association, the high end for fast association. In turn, B1 had a Kd of 11 nM, a koff of 0.0095 s⁻¹ and a kon of 870000 M⁻¹ s⁻¹.

B2 gave a Kd of 1.5 nM, a koff of 0.0034 s⁻¹ and a kon of 2.2e+06 M⁻¹ s⁻¹.

With B3, the Kd was 2.4 nM, the koff amounted to 0.0081 s⁻¹ and the kon amounted to 3.4e+06 M⁻¹ s⁻¹.

Molecule B4 registered a Kd of 1.3 nM, a koff of 0.0013 s⁻¹ and a kon of 1e+06 M⁻¹ s⁻¹.

On to B5, for which the Kd worked out at 3.4 nM, the koff was found to be 0.0014 s⁻¹ and the kon stood at 400000 M⁻¹ s⁻¹.

For a further test, the target named is T2, Fc-fused CD40 (Ancell, #504-820) (human, UniProt P25942 21-193).
T2 construct: Bought reagent; not shown: Fc part of the bought fusion protein
Description: CD40 binding ELISA (summary table, Example 3). On the procedure:
(§2) Purified full IgG molecules were analysed with ELISA. High binding flat bottom LIA plates (Greiner #655074) were coated with Fc-fused CD40 (Ancell, #504-820) at 0.05 μg/ml, and milk powder were used at 3% for blocking and at 1% for dilution. The antibodies to be tested were added in serial dilutions starting at 50 μg/ml and detection was carried out using HRP conjugated goat anti human Ig-Fc (Jackson ImmunoResearch, #109-035-098) and Super Signal Pico Chemiluminescent (ThermoScientific, #37069) was used as substrate.
(In an ELISA, binding on a coated surface is turned into a signal by an enzyme label.)
For orientation: EC50 means the concentration needed to bring the measured effect to its halfway point. Turning to B1, the EC50 came to 1.4 µg/mL.

B2: a half-maximal response (EC50) required 0.041 µg/mL.

B3: the midpoint of the response, the EC50, lay at 0.28 µg/mL.

Molecule B6 registered an EC50 of 0.58 µg/mL.

Regarding B7, a half-maximal effect (EC50) was put at 2.2 µg/mL.

In turn, B4 showed an EC50 of 0.034 µg/mL.

B5 had an EC50 of 0.025 µg/mL.

In another test the target is T3, human CD40 (human, UniProt P25942 21-277). The test is described as follows: cell-based or functional assay.
Take B1: the “Potency B cell proliferation (EC50)” value amounted to 1 µg/mL.

As to B2, the “Potency B cell proliferation (EC50)” value is 0.9 µg/mL.

Take B3: the “Potency B cell proliferation (EC50)” value was found to be 2.2 µg/mL.

Turning to B6, the “Potency B cell proliferation (EC50)” value came out at 3.6 µg/mL.

B7: the “Potency B cell proliferation (EC50)” value was found to be 2.3 µg/mL.

As to B4, the “Potency B cell proliferation (EC50)” value amounted to 0.7 µg/mL.

B5: the “Potency B cell proliferation (EC50)” value came out at 1 µg/mL.

The target of a further test is T3, human CD40. Description: cell-based or functional assay. The source holds these as a separate data set.
As to B1, the B cell proliferation stood at 1.

As for B2, the “B cell proliferation (see Example 3)” value is 0.9 and the “DC activation (index: IL-12p40 with antibody divided by IL-12p40 with isotype control)” value came to 7.8 index.

In the case of B3, the “B cell proliferation (see Example 3)” value was 2.2 and the “DC activation (index: IL-12p40 with antibody divided by IL-12p40 with isotype control)” value is 10.8 index.

On to B6, for which the “B cell proliferation (see Example 3)” value turned out to be 3.6.

As for B7, the “B cell proliferation (see Example 3)” value is 2.3.

For the molecule B4, the “B cell proliferation (see Example 3)” value worked out at 0.7 and the “DC activation (index: IL-12p40 with antibody divided by IL-12p40 with isotype control)” value turned out to be 22.3 index.

Consider B5, for which the B cell proliferation was found to be 1.

For a further test, the target named is T4, murine CD40 (mouse, UniProt P27512 20-193, limits assumed).
T4 construct: How murine CD40 was presented in the assay is not described; also called mouse CD40
T4 sequence (P27512 20-193 limits assumed): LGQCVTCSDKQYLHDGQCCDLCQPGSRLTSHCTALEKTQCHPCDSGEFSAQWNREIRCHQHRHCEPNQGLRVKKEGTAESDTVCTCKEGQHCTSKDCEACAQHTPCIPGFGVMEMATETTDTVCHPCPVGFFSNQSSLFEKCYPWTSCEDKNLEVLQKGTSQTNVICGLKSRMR
The test is described as follows: chimeric domain mapping, flow cytometry. The source says: (§3) Genes of CD40 human/mouse chimeras were synthesized (GenScript). The different chimeras were designed by exchanging domains or modules of the human CD40 with corresponding mouse CD40 domains or modules. The chimeras were designed after evaluation of the human and mouse sequences and 3D analysis of human CD40. The constructs were cloned into pcDNA3.1 vector (Invitrogen) using the restriction sites for NotI and HindIII. The mouse/human chimeras were transiently transfected into FreeStyle 293-F cells (Invitrogen), incubated 48 hours in FreeStyle 293 expression medium (Invitrogen) 37C, 8% CO2, 135 rpm.
(§4) Cells were analyzed with FACS Verse (BD Biosciences). Binding to the different chimeric constructs were determined with MFI to be either positive (+) or negative (−).
B2: the binding result is “no binding”.

As for B3, the binding result is on record as “no binding”.

Consider B4, for which the binding result is “no binding”.

The next test deals with T2, Fc-fused CD40 (Ancell, #504-820). The test is described as follows: ELISA, coated Fc-fused CD40, full IgG. The method, then:
as §2
In turn, B1 gave an EC50 of 1.4 µg/mL.

B2 came in with an EC50 of 0.041 µg/mL.

The molecule B3 showed an EC50 of 0.28 µg/mL.

Turning to B6, the EC50 stood at 0.58 µg/mL.

B7 gave an EC50 of 2.2 µg/mL.

In turn, B4 registered an EC50 of 0.034 µg/mL.

B5 returned an EC50 of 0.025 µg/mL.

Another test addresses T1, CD40hfc (R&Dsystems, USA). Description: SPR Biacore 3000, CD40hfc immobilized (summary table, Example 6). The method, then:
as §1
In the case of B1, the Kd was 11 nM, the koff is 0.0095 s⁻¹ and the kon was 900000 M⁻¹ s⁻¹.

For B2, the Kd amounted to 1.5 nM, the koff amounted to 0.0034 s⁻¹ and the kon came out at 2.2e+06 M⁻¹ s⁻¹.

Take B3: the Kd turned out to be 2.4 nM, the koff amounted to 0.0081 s⁻¹ and the kon was determined as 3.4e+06 M⁻¹ s⁻¹.

The molecule B4 displayed a Kd of 1.3 nM, a koff of 0.0013 s⁻¹ and a kon of 1e+06 M⁻¹ s⁻¹.

B5 displayed a dissociation constant (Kd) of 3.4 nM, a koff of 0.0014 s⁻¹ and a kon of 400000 M⁻¹ s⁻¹.

In a further test the target is T5, CD40 cys2A mouse: Human CD40 with mouse module A of domain 2 (62-77) (human; mouse, UniProt P25942 21-277).
T5 construct: Human/mouse chimera on FreeStyle 293-F cells; Human flanks inferred from the printed mouse range
T5 chain: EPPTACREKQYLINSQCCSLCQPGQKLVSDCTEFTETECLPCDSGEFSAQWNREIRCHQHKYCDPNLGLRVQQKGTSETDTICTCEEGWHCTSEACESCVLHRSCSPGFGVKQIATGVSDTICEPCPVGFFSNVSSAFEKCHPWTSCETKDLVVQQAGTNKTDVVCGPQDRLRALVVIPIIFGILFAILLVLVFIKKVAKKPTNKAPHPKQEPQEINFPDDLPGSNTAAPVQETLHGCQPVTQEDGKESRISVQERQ
Description: flow cytometry on 293-F cells transfected with the chimera; MFI scored + or -.
Excerpt: as §3, §4
For orientation: Flow cytometry measures light scatter and fluorescence of single cells or particles in a stream.
As for B2, the binding result is reported as “binds”.

Consider B3, for which the binding result was “binds”.

Consider B4, for which the binding result is reported as “no binding”.

In the next test the target is T6, CD40 cys3B mouse: Human CD40 with mouse module B of domain 3 (122-143) (human; mouse, UniProt P25942 21-277).
T6 construct: Human/mouse chimera on FreeStyle 293-F cells; Human flanks inferred from the printed mouse range
T6 chain: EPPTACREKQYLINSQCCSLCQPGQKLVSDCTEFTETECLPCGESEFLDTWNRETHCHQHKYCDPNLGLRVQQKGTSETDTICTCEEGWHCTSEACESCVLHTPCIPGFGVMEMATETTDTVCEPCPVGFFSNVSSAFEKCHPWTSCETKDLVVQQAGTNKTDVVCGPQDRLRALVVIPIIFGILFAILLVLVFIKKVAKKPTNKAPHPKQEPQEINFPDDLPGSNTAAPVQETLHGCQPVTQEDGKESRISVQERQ
Described as above.
Excerpt: as §3, §4
As to B2, the binding result was “binds”.

As to B3, the binding result is “binds”.

On to B4, for which the binding result is “binds”.

The target of another test is T7, CD40 cys1B mouse: Human CD40 with mouse module B of domain 1 (38-59) (human; mouse, UniProt P25942 21-277).
T7 construct: Human/mouse chimera on FreeStyle 293-F cells; Human flanks inferred from the printed mouse range
T7 chain: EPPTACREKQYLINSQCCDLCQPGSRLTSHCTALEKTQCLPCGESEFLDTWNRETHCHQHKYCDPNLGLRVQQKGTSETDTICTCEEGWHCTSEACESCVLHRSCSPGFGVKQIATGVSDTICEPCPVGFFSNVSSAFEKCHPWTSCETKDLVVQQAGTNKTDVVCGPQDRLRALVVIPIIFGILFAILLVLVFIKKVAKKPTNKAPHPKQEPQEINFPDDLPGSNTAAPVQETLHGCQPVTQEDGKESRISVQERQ
The test is described as above.
Excerpt: as §3, §4
For the molecule B2, the binding result is on record as “no binding”.

B3: the binding result is on record as “no binding”.

With B4, the binding result was “binds”.
